Numbered stars: 1 amine (or outer) side, 2 acyl side, 3 side chain; on linkers, the order of the positions; unused ones are H or OH. Bridge positions count the residues as written; N and C are the ends. * marks the point of attachment. C20 diacid = O=C(O)CCCCCCCCCCCCCCCCCCC(=O)*; γGlu = O=C(O)[C@H](CCC(=O)[*:2])N[*:1]
T1: rat calcitonin receptor (rat, UniProt P32214 25-516)
T1 construct: whole, on cells; Membranes of BHK tk'ts 13 cells transiently transfected with the rat calcitonin receptor; also called rCTR; rat calcitonin (a) receptor
T1 sequence (looked up): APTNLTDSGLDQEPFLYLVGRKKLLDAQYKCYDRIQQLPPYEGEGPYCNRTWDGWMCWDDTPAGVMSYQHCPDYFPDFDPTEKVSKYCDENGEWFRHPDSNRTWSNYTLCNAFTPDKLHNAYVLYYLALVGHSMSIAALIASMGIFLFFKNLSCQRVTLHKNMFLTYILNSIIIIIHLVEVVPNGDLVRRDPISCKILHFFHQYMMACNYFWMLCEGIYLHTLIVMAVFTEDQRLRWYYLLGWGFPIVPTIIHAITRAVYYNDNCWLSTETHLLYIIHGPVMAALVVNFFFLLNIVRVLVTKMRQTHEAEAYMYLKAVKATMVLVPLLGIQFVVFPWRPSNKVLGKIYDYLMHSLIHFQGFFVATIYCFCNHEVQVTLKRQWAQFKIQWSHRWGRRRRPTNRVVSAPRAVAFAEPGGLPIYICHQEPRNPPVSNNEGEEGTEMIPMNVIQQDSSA

T2: human calcitonin receptor (human, UniProt P30988 25-474)
T2 construct: whole, on cells; Membranes of a BHK tk'ts 13 cell line stably transfected with the human calcitonin receptor; also called hCTR; hCT
T2 sequence (looked up): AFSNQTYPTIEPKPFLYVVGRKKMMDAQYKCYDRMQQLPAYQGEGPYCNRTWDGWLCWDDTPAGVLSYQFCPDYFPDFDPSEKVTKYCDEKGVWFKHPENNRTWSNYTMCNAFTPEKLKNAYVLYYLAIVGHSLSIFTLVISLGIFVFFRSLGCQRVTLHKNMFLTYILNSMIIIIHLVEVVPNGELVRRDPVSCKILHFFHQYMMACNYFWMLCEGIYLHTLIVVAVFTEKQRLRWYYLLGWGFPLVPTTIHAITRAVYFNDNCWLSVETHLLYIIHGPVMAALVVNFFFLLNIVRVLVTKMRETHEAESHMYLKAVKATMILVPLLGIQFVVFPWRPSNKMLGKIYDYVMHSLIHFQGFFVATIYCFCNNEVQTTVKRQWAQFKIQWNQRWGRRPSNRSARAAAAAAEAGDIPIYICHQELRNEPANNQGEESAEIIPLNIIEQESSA

T3: rat amylin receptor (rat calcitonin receptor + rat RAMP 3) (rat, UniProt P32214 25-516; Q9JJ73 23-147)
T3 construct: whole, on cells; Membranes of BHK tk'ts 13 cells transiently transfected with the rat calcitonin receptor and rat RAMP 3; also called rAmylin-R; rat amylin 3(a) receptor
T3 sequence (looked up) 1: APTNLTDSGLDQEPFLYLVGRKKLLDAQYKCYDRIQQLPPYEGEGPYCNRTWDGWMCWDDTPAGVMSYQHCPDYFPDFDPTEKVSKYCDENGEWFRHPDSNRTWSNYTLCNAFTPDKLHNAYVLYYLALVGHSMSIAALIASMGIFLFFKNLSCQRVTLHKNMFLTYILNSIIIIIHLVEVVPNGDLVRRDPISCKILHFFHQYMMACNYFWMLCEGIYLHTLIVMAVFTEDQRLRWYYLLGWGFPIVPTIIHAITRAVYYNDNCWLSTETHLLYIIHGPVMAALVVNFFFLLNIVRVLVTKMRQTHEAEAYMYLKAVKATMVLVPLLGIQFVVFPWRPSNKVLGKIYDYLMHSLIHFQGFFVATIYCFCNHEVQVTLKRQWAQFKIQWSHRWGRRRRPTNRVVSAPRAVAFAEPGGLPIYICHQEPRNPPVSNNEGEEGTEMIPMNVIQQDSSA
T3 sequence (looked up) 2: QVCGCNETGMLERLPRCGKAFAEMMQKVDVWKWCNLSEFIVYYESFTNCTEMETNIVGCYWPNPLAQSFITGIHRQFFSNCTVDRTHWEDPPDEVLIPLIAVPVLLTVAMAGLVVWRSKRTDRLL


Key:
[1] = biological target: T1, rat calcitonin receptor; assay: SPA competition vs 125I-calcitonin, membranes with rat CTR (Assay VIII)
[2] = biological target: T1, rat calcitonin receptor; assay: IC50 at rCTR divided by IC50 at rAmylin-R (reference)
[3] = biological target: T2, human calcitonin receptor; assay: IC50 at hCTR divided by IC50 at hAmylin-R (reference)
Method: The resulting pellet was resuspended, homogenized and centrifuged (20.000 rpm, 15 min) in a buffer containing 20 mM Na-HEPES and 0.1 mM EDTA (pH 7.4, buffer 2). The resulting pellet was resuspended in buffer 2 and protein concentration was measured (BCA protein Assay, Pierce). The homogenate was kept cold during the whole procedure. The membranes were kept at −80° C. until use. The assay was performed in a 384 well Optiplate (PerkinElmer) in a total volume of 40 ul. Membranes were mixed with SPA beads. Final concentration of membranes 35 ng/μL final and SPA beads was 0.05 mg/well. Test-compounds were dissolved in DMSO and further diluted in assay buffer (50 mM Hepes, pH 7.4, 1 mM CaCl2, 5 mM MgCl₂, 0.1% OA and 0.02% Tween20). […] The final mixture was incubated with shaking at 400 rpm for 120 min at 25° C. prior to centrifugation (1500 rpm, 10 min). Samples were analyzed on TopCounter™ (Packard). The IC₅₀ was calculated using (one site binding competition analysis) GraphPad Prism5 as a measure of receptor affinity.
Membranes were prepared in the following way; the cells were rinsed with PBS and incubated with Versene for approximately 5 min before harvesting. The cells were flushed with PBS and the cell-suspension was centrifuged for 5 min at 1000 rpm. Cells were homogenized (Ultrathurrax) in a buffer containing 20 mM Na-HEPES and 10 mM EDTA (pH 7.4) and centrifuged at 20.000 rpm for 15 min. The resulting pellet was resuspended, homogenized and centrifuged (20.000 rpm, 15 min) in a buffer containing 20 mM Na-HEPES and 0.1 mM EDTA (pH 7.4, buffer 2). The resulting pellet was resuspended in buffer 2 and protein concentration was measured (BCA protein Assay, Pierce). The homogenate was kept cold during the whole procedure. The membranes were kept at −80° C. until use. Assay was performed in a 384 well Optiplate (PerkinElmer) in a total volume of 40 ul. Membranes were mixed with SPA beads.

[4] = biological target: T3, rat amylin receptor (rat calcitonin …); assay: SPA competition vs 125I-rat amylin, membranes with rat CTR + rat RAMP3 (Assay VI)
Method: The binding assay was performed using scintillation proximity assay (SPA) beads (RPNQ0001) from PerkinElmer and cell membranes from the Amylin 3(a)/CRE-luc cells (as described in Assay (II)) were used. Membranes were prepared in the following way; the cells were rinsed with PBS and incubated with Versene for approximately 5 min before harvesting. The cells were flushed with PBS and the cell-suspension was centrifuged for 5 min at 1000 rpm. Cells were homogenized (ultrathurrax) in a buffer containing 20 mM Na-HEPES and 10 mM EDTA (pH 7.4) and centrifuged at 20.000 rpm for 15 min. The resulting pellet was resuspended, homogenized and centrifuged (20.000 rpm, 15 min) in a buffer containing 20 mM Na-HEPES and 0.1 mM EDTA (pH 7.4, buffer 2). The resulting pellet was resuspended in buffer 2 and protein concentration was measured (BCA protein Assay, Pierce). The homogenate was kept cold during the whole procedure. The membranes were kept at −80° C. until use. The assay was performed in a 384 well Optiplate (PerkinElmer) in a total volume of 40 ul. Membranes were mixed with SPA beads. Final concentration of membranes 35 ng/μL final and SPA beads was 0.05 mg/well. Test-compounds were dissolved in DMSO and further diluted in assay buffer (50 mM Hepes, pH 7.4, 1 mM CaCl2, 5 mM MgCl₂, 0.1% OA and 0.02% Tween20). […] The final mixture was incubated with shaking at 400 rpm for 120 min at 25° C. prior to centrifugation (1500 rpm, 10 min). Samples were analyzed on TopCounter™ (Packard). The IC₅₀ was calculated using (one site binding competition analysis) GraphPad Prism5 as a measure of receptor affinity.
Cells were grown in DMEM with 10% FBS and 1% Pen/Strep. Approximately 48 hours after transfection, the cells were harvested and membranes were prepared.

IC50 [1] [nM] | Ratio rCT/rAmylin binding [2] | Ratio hCT/hAmylin binding [3] | IC50 [4] [nM] | Binder
51.5 | 21.7 | 20 | 2.37 | {C20 diacid-γGlu}-KCNTATCATQRLAEFLRHSSPNFGPILPPTNVGSNTY-NH2 (disulfide 2-7; SMILES CC[C@H](C)[C@H](NC(=O)[C@@H]1CCCN1C(=O)CNC(=O)[C@H](Cc1ccccc1)NC(=O)[C@H](CC(N)=O)NC(=O)[C@@H]1CCCN1C(=O)[C@H](CO)NC(=O)[C@H](CO)NC(=O)[C@H](Cc1c[nH]cn1)NC(=O)[C@H](CCCNC(=N)N)NC(=O)[C@H](CC(C)C)NC(=O)[C@H](Cc1ccccc1)NC(=O)[C@H](CCC(=O)O)NC(=O)[C@H](C)NC(=O)[C@H](CC(C)C)NC(=O)[C@H](CCCNC(=N)N)NC(=O)[C@H](CCC(N)=O)NC(=O)[C@@H](NC(=O)[C@H](C)NC(=O)[C@@H]1CSSC[C@H](NC(=O)[C@H](CCCCN)NC(=O)CC[C@H](NC(=O)CCCCCCCCCCCCCCCCCCC(=O)O)C(=O)O)C(=O)N[C@@H](CC(N)=O)C(=O)N[C@@H]([C@@H](C)O)C(=O)N[C@@H](C)C(=O)N[C@@H]([C@@H](C)O)C(=O)N1)[C@@H](C)O)C(=O)N[C@@H](CC(C)C)C(=O)N1CCC[C@H]1C(=O)N1CCC[C@H]1C(=O)N[C@H](C(=O)N[C@@H](CC(N)=O)C(=O)N[C@H](C(=O)NCC(=O)N[C@@H](CO)C(=O)N[C@@H](CC(N)=O)C(=O)N[C@H](C(=O)N[C@@H](Cc1ccc(O)cc1)C(N)=O)[C@@H](C)O)C(C)C)[C@@H](C)O, modifications are with respect to human amylin; also called compound 6)
47.2 | 42 | 16.5 | 1.12 | {C20 diacid-γGlu}-KCNTATCATQRLAEFLRHSSPNFGAPLSSTNVGSNTY-NH2 (disulfide 2-7; SMILES CC(C)C[C@H](NC(=O)[C@H](CCCNC(=N)N)NC(=O)[C@H](CCC(N)=O)NC(=O)[C@@H](NC(=O)[C@H](C)NC(=O)[C@@H]1CSSC[C@H](NC(=O)[C@H](CCCCN)NC(=O)CC[C@H](NC(=O)CCCCCCCCCCCCCCCCCCC(=O)O)C(=O)O)C(=O)N[C@@H](CC(N)=O)C(=O)N[C@@H]([C@@H](C)O)C(=O)N[C@@H](C)C(=O)N[C@@H]([C@@H](C)O)C(=O)N1)[C@@H](C)O)C(=O)N[C@@H](C)C(=O)N[C@@H](CCC(=O)O)C(=O)N[C@@H](Cc1ccccc1)C(=O)N[C@@H](CC(C)C)C(=O)N[C@@H](CCCNC(=N)N)C(=O)N[C@@H](Cc1c[nH]cn1)C(=O)N[C@@H](CO)C(=O)N[C@@H](CO)C(=O)N1CCC[C@H]1C(=O)N[C@@H](CC(N)=O)C(=O)N[C@@H](Cc1ccccc1)C(=O)NCC(=O)N[C@@H](C)C(=O)N1CCC[C@H]1C(=O)N[C@@H](CC(C)C)C(=O)N[C@@H](CO)C(=O)N[C@@H](CO)C(=O)N[C@H](C(=O)N[C@@H](CC(N)=O)C(=O)N[C@H](C(=O)NCC(=O)N[C@@H](CO)C(=O)N[C@@H](CC(N)=O)C(=O)N[C@H](C(=O)N[C@@H](Cc1ccc(O)cc1)C(N)=O)[C@@H](C)O)C(C)C)[C@@H](C)O, modifications are with respect to human amylin; also called compound 7) [N^α1-[(4S)-4-carboxy-4-(19-carboxynonadecanoylamino)butanoyl]-[Glu14,Arg17,Pro21,Pro26]-h-amylin]
55.2 | 45.6 | 19.1 | 1.21 | {C20 diacid-γGlu}-KCNTATCATQRLAEFLRHSSPNFGAIPSSTNVGSRTY-NH2 (disulfide 2-7; SMILES CC[C@H](C)[C@H](NC(=O)[C@H](C)NC(=O)CNC(=O)[C@H](Cc1ccccc1)NC(=O)[C@H](CC(N)=O)NC(=O)[C@@H]1CCCN1C(=O)[C@H](CO)NC(=O)[C@H](CO)NC(=O)[C@H](Cc1c[nH]cn1)NC(=O)[C@H](CCCNC(=N)N)NC(=O)[C@H](CC(C)C)NC(=O)[C@H](Cc1ccccc1)NC(=O)[C@H](CCC(=O)O)NC(=O)[C@H](C)NC(=O)[C@H](CC(C)C)NC(=O)[C@H](CCCNC(=N)N)NC(=O)[C@H](CCC(N)=O)NC(=O)[C@@H](NC(=O)[C@H](C)NC(=O)[C@@H]1CSSC[C@H](NC(=O)[C@H](CCCCN)NC(=O)CC[C@H](NC(=O)CCCCCCCCCCCCCCCCCCC(=O)O)C(=O)O)C(=O)N[C@@H](CC(N)=O)C(=O)N[C@@H]([C@@H](C)O)C(=O)N[C@@H](C)C(=O)N[C@@H]([C@@H](C)O)C(=O)N1)[C@@H](C)O)C(=O)N1CCC[C@H]1C(=O)N[C@@H](CO)C(=O)N[C@@H](CO)C(=O)N[C@H](C(=O)N[C@@H](CC(N)=O)C(=O)N[C@H](C(=O)NCC(=O)N[C@@H](CO)C(=O)N[C@@H](CCCNC(=N)N)C(=O)N[C@H](C(=O)N[C@@H](Cc1ccc(O)cc1)C(N)=O)[C@@H](C)O)C(C)C)[C@@H](C)O, modifications are with respect to human amylin; also called compound 16)

Reference: patent US20140087995A1 (published 2014)
